Test results reported in the nanobody polyreactivity screen of Harvey et al. (2022).

Assay: yeast display, Sf9 membrane polyspecificity reagent, FACS + sequencing; frameworks hold sequencing errors
In short: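 A nanobody's polyreactivity label depends on the gate it was sorted from. Yeast display cells were stained with 10% biotinylated, detergent-solubilized Sf9 membrane reagent for 1 hour at 4 °C, enriched on streptavidin microbeads and sorted by FACS. The low and high (top ~1%) gates were set on anti-HA fluorescence for expression and streptavidin fluorescence for reagent binding.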

| Sequence | polyreactivity (PSR sort gate) |
| --- | --- |
| QVQLVESGGGLVQAGGSLRLSSAASGFTFAYYAMGWYRQAPGKERELVAAITRGGGRTFYADSVKGRFTISRDNAKNTVYLQMNSLKPEDTAVYYCAAVKDTTNSRGYGYWGQGTQVTVSS | high polyreactivity |
| QVQLVESGGGLVQAGGSLRLSSAASGFTFFYYAMGWYRQAPGKERELVAAISASGGSTSYADSVKGRFTISRDNAKNTVYLQMNSLKPEDTAVYYCAARVYSVRSGYYYWGQGTQVTVSS | high polyreactivity |
| QVQLVESGGGLVQAGGSLRLSSAASGFTFGNNAMVWYRQAPGKEREFVATISRRGGSTYYADSVKGRFTISRDNAKNTVYLLMNSLKPEDTAVYYCAVDRAGIKFAAGYDYWGQGTQVTVSS | high polyreactivity |
| QVQLVESGGGLVQAGGSLRLSSAASGFTFPAYTMGWSRQAPGKERELVAAITSSGGNTYYADSVKGRFTISRDNAKNTVYLQMNSLKPEDTAVYYCAADWDYPYDEAVSKDIDYDYWGQGTQVTVSS | low polyreactivity |
| QVQLVESGGGLVQAGGSLRLSSAASGFTFRRYAMGWYRQAPGKERELVAAISIRGGRTYYADSVNGRFTISRDNAKNTVYLQMNSLKPEDTAVNYCAADGVYALDVESDYWGQGTQVTVSS | high polyreactivity |
| QVQLVESGGGLVQAGGSLRLSSAASGFTFSGYDMGWYRQAPGKERELVAGISSGGVSTTYADSVNGRFTISRDNAKNTVYLQMNSLKQEDTAVYYCNAEWTSFDWGQGTQVTVSS | low polyreactivity |
| QVQLVESGGGLVQAGGSLRLSSAASGFTVKYNTMGSSRQAPGKEREMVAAISWDGTSTYYADSVKGRFTISRDYAKNTVYLQMNSLKPEDTAVYYCATDAVGAWWSYLSGYGYWGQGTQVTVSS | high polyreactivity |
| QVQLVESGGGLVQAGGSLRLSSAASGGIFWYYTMGWYRQAPGKERELVAAISWSGGRTYYADSVKGRFTISRDNAKNTVYLQMNSLKPEDTAVYYCAATFRGVLGWYHYEYWGQGTQVTVSS | high polyreactivity |
| QVQLVESGGGLVQAGGSLRLSSAASGIIFGGSAMGWYRQAPGKEWELVAAISRSGGSTYYADSVKGRFTISRDNPKKTVYLQMNSLKPEDTAVYYCNAVPRRKGFNYWGQGTQVTVSS | high polyreactivity |
| QVQLVESGGGLVQAGGSLRLSSAASGIIFSTYAMGWYRQAPGKERELVAAITSTGSTNYADSVKGRFTISRDNAKNTVYFQMNSLKPEDTAVYYCNAALNVSGHYPNDYWGQGTQVTVSS | low polyreactivity |
| QVQLVESGGGLVQAGGSLRLSSAASGITFPRYAMGWYRQAPGKERELVAAITRRGGSTYYADSVKGRFTISRDNAKNTVYLQMNSLKPEDTAVYYCNTDMRYSYYLPGYDYWGQGTQVTVSS | high polyreactivity |
| QVQLVESGGGLVQAGGSLRLSSAASGITFRGSAMGWYRQAPGKERELVASITNTDSTYYADSVKGRFTISRDNAKHTVYLQMNSLKPEDTAVYYCAARRGRKYGYWGQGTQVTVSS | high polyreactivity |
| QVQLVESGGGLVQAGGSLRLSSAASGITFYLYAMGWYRQAPGKERELVAGISSGGSTNYADSVKGRFTISRDNAKNTVYLQMNSLKPEDTAVYYCAAKLRGYRYGYWGHGTQVTVSS | high polyreactivity |
| QVQLVESGGGLVQAGGSLRLSSAASGITFYYYAMGWYRQAPGKERELVAAINWSGTSTYYADSVKGRFTISRDNAKNTVYLQMNSLKPEDTAVYYCNAERGRSFWWAYDYWGQGTQVTVSS | low polyreactivity |
| QVQLVESGGGLVQAGGSLRLSSAASGLTFHRYAMGWYRQAPGKERELVAGISWSGASTYFADSVKGRFTISRDNAKNTVYLQMNSLKPEDTAVYYCAAVVPGLAYYRHGYWGQGTQVTVSS | high polyreactivity |
| QVQLVESGGGLVQAGGSLRLSSAASGLTFPIYAMVWYTQAPGKEREFVAVITTSGGSTYYADSVKGRFTISRDNAKNTVFLQMNSLKPEDTSVYYCNARRIRHYYWGQGTQVTVSS | high polyreactivity |

| Sequence | polyreactivity (PSR sort gate) |
| --- | --- |
| QVQLVESGGGLVQAGGSLRLSSAASGLTLRTYAMGWYRQETGQERELVAAITSGGGSTYYADSVKGRFTISRDNSKNTVYLQLNSLNQEDTAFYYCAAKPVVRYVSFGYDYWGQGTDVTVSS | high polyreactivity |
| QVQLVESGGGLVQAGGSLRLSSAASGRIFFHNAMGWCRQAPGKDRELVAAIRSSTGSTYYADSVKGRFTISRDNAKNTVYLQMNSLKPEDNAVYYCAARSYDKYSRRVWGLGYWGQGTQVTVSS | high polyreactivity |
| QVQLVESGGGLVQAGGSLRLSSAASGRIFRFYAMGWYRQAPGKERELVAAITSGGSTYYADSVKGRFTISRDNAKNTVYLQMNRLKPEDTAVYYCANYYWGQGTQVTVSS | low polyreactivity |
| QVQLVESGGGLVQAGGSLRLSSAASGRIFRYYAMGWYSQAPGKERELVAAISWSGGNSYYADSVKGRFTISRDNAKNTVYLQMNSLKTEDTAVYYCNAYYLPSRYDYWGQGTQVTVSS | high polyreactivity |
| QVQLVESGGGLVQAGGSLRLSSAASGRIFSDYAMGWYRQAPGKERELVATITSGDSTNYGDSVKGRFTISRDNAKNTVYLQMNSLKTESTEVYYCNAERFPDYDYWGQGTQVTVSS | low polyreactivity |
| QVQLVESGGGLVQAGGSLRLSSAASGRIFVYNAMGWYRQAPGKERELVAGISWSGARSHYADSVKGRFTISRDNAKKTVYLLMNSLKPEDTAVYYCAAYPQYRSFQYDYWGQGTQVTVSS | high polyreactivity |
| QVQLVESGGGLVQAGGSLRLSSAASGRIFYGYAMGWYRQAPGKERELVAGISYRGARTYYADSVKGRFTISRDNAKNTVYLQMNSLKPEDTAVYYCNAVPYYPFAFGALDYWGQGTQVTVSS | high polyreactivity |
| QVQLVESGGGLVQAGGSLRLSSAASGRIFYHNTMGWYRQAPGKERELVAAIRSGSSTYYADSVKGRFTISRDNAKNTVYLQMNSLKPEDTAVYYCNARPWYSWGVDYDYWGQGTQVTVSS | low polyreactivity |
| QVQLVESGGGLVQAGGSLRLSSAASGRIFYKYVMGWYRQATGKERELVATITSGGSTYYADSVKGRFTISRDNAKNTVYLQMNSLKPEDTAVFYCAARKYYSRAYDYWGQGTQVTVSS | high polyreactivity |
| QVQLVESGGGLVQAGGSLRLSSAASGRILYRYAMGWYRQAPGKESELVAAIYRSGGDTYYADSVKGRFTITRDNAKNTVYLQMNSLIPEDTAVYYCAASFEGSGYRYDYWGQGSQVTVSS | low polyreactivity |
| QVQLVESGGGLVQAGGSLRLSSAASGRNFSRYAMGWYRQAPGKERELVAAINKSGGSTYYADSVKGRFTISRDNAKNTVYLQMNSLKPEDSAFYYCNAVYYWYKGDYWGQGSQVTVSS | high polyreactivity |
| QVQLVESGGGLVQAGGSLRLSSAASGRTFDAYAMGWNRQAPGKERELVAAISGRGGSTTYADSVKGRFTISRDNAKNTVYLQMNSLKPEDTAVYYCAARYPPRFGVVRGYSRSGYWGQGTQVTVSS | high polyreactivity |
| QVQLVESGGGLVQAGGSLRLSSAASGRTFEVYAMGWYRQAPGKERELVATITYSGGITYYADSVKGRFTISRDNAKNTVYLQMNSLKPEDTAVYYPIGVGGDYDYWGQGTQVTVSS | low polyreactivity |
| QVQLVESGGGLVQAGGSLRLSSAASGRTFGFNPMGWYRQAPGKERELVAAISSSSSSTYYADSVKGRFTISRDNAKNTVYLQINSLKPEDTAVYYCAKQEPYPFGGYYEYDYWGQGTQVTVSS | low polyreactivity |
| QVQLVESGGGLVQAGGSLRLSSAASGRTFHANAMGWYRQAPGKERELVARINWSGTSTYYADSVKGRFTISRDNAKNTVYLQMNSLKPEDTAVYYCAAGWIRLYSSLYDYWGQGTQVTVSS | high polyreactivity |
| QVQLVESGGGLVQAGGSLRLSSAASGRTFPSYDMGWYRQAPGKERELVAAISSSGGSTYYADSVKGRFTISRDNAKNTVYLQMNSLKPEDTAVYYCAAATPSGYYYWGQGTQVTVSS | high polyreactivity |
